The labels stand for the following.
T1: rat calcitonin receptor (rat, UniProt P32214 25-516)
T1 construct: whole, on cells; Used as membranes prepared from the transfected cells; also called rCTR; rat calcitonin (a) receptor
T1 sequence (looked up): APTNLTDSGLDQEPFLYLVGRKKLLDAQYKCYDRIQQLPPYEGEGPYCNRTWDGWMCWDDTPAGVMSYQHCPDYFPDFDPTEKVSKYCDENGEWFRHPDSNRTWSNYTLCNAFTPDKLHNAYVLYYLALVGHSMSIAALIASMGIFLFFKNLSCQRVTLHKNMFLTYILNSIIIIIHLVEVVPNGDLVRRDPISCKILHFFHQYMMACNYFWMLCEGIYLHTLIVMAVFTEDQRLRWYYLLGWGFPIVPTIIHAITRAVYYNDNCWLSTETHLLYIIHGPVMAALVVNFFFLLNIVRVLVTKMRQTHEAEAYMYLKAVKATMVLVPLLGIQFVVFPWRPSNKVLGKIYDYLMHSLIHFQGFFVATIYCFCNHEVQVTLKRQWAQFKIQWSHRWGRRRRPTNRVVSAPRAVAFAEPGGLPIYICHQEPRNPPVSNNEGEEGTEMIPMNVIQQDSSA

T2: human calcitonin receptor (human, UniProt P30988 25-474)
T2 construct: whole, on cells; Used as membranes prepared from the transfected cells (Assay VII); also called hCTR; hCT
T2 sequence (looked up): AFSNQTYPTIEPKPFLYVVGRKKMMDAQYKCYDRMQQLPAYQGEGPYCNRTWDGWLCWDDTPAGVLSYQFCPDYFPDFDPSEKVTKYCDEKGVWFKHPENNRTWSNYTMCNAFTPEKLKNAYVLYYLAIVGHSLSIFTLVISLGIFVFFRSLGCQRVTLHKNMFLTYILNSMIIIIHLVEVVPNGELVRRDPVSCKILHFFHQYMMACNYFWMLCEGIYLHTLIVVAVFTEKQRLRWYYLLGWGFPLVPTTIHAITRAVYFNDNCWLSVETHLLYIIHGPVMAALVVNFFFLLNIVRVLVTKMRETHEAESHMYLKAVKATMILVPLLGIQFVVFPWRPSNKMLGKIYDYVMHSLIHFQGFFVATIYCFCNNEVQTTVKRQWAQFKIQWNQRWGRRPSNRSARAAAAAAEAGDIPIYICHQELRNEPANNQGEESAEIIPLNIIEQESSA

T3: rat amylin receptor (rat calcitonin receptor + rat RAMP 3) (rat, UniProt P32214 25-516; Q9JJ73 23-147)
T3 construct: whole, on cells; Used as membranes prepared from the transfected cells; also called rAmylin-R; rat amylin 3(a) receptor
T3 sequence (looked up) 1: T1 sequence (looked up)
T3 sequence (looked up) 2: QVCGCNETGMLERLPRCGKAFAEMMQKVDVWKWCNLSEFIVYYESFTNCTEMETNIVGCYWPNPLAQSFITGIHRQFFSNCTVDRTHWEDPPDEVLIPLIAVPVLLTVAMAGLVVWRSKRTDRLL

B1: N^α1-[(4S)-4-carboxy-4-(19-carboxynonadecanoylamino)butanoyl]-[Glu14,Arg17,Pro21,Pro27,Arg35]-h-amylin (peptide)
peptide: {C20 diacid-γGlu}-KCNTATCATQRLAEFLRHSSPNFGAIPSSTNVGSRTY-NH2
modifications: disulfide 2-7
SMILES: CC[C@H](C)[C@H](NC(=O)[C@H](C)NC(=O)CNC(=O)[C@H](Cc1ccccc1)NC(=O)[C@H](CC(N)=O)NC(=O)[C@@H]1CCCN1C(=O)[C@H](CO)NC(=O)[C@H](CO)NC(=O)[C@H](Cc1c[nH]cn1)NC(=O)[C@H](CCCNC(=N)N)NC(=O)[C@H](CC(C)C)NC(=O)[C@H](Cc1ccccc1)NC(=O)[C@H](CCC(=O)O)NC(=O)[C@H](C)NC(=O)[C@H](CC(C)C)NC(=O)[C@H](CCCNC(=N)N)NC(=O)[C@H](CCC(N)=O)NC(=O)[C@@H](NC(=O)[C@H](C)NC(=O)[C@@H]1CSSC[C@H](NC(=O)[C@H](CCCCN)NC(=O)CC[C@H](NC(=O)CCCCCCCCCCCCCCCCCCC(=O)O)C(=O)O)C(=O)N[C@@H](CC(N)=O)C(=O)N[C@@H]([C@@H](C)O)C(=O)N[C@@H](C)C(=O)N[C@@H]([C@@H](C)O)C(=O)N1)[C@@H](C)O)C(=O)N1CCC[C@H]1C(=O)N[C@@H](CO)C(=O)N[C@@H](CO)C(=O)N[C@H](C(=O)N[C@@H](CC(N)=O)C(=O)N[C@H](C(=O)NCC(=O)N[C@@H](CO)C(=O)N[C@@H](CCCNC(=N)N)C(=O)N[C@H](C(=O)N[C@@H](Cc1ccc(O)cc1)C(N)=O)[C@@H](C)O)C(C)C)[C@@H](C)O
notes: Derivative of human amylin; also called compound 16
B2: N^α1-[(4S)-4-carboxy-4-(19-carboxynonadecanoylamino)butanoyl]-[Glu14,Arg17,Pro21,Pro27,His35]-h-amylin (peptide)
peptide: {C20 diacid-γGlu}-KCNTATCATQRLAEFLRHSSPNFGAIPSSTNVGSHTY-NH2
modifications: disulfide 2-7
SMILES: CC[C@H](C)[C@H](NC(=O)[C@H](C)NC(=O)CNC(=O)[C@H](Cc1ccccc1)NC(=O)[C@H](CC(N)=O)NC(=O)[C@@H]1CCCN1C(=O)[C@H](CO)NC(=O)[C@H](CO)NC(=O)[C@H](Cc1c[nH]cn1)NC(=O)[C@H](CCCNC(=N)N)NC(=O)[C@H](CC(C)C)NC(=O)[C@H](Cc1ccccc1)NC(=O)[C@H](CCC(=O)O)NC(=O)[C@H](C)NC(=O)[C@H](CC(C)C)NC(=O)[C@H](CCCNC(=N)N)NC(=O)[C@H](CCC(N)=O)NC(=O)[C@@H](NC(=O)[C@H](C)NC(=O)[C@@H]1CSSC[C@H](NC(=O)[C@H](CCCCN)NC(=O)CC[C@H](NC(=O)CCCCCCCCCCCCCCCCCCC(=O)O)C(=O)O)C(=O)N[C@@H](CC(N)=O)C(=O)N[C@@H]([C@@H](C)O)C(=O)N[C@@H](C)C(=O)N[C@@H]([C@@H](C)O)C(=O)N1)[C@@H](C)O)C(=O)N1CCC[C@H]1C(=O)N[C@@H](CO)C(=O)N[C@@H](CO)C(=O)N[C@H](C(=O)N[C@@H](CC(N)=O)C(=O)N[C@H](C(=O)NCC(=O)N[C@@H](CO)C(=O)N[C@@H](Cc1c[nH]cn1)C(=O)N[C@H](C(=O)N[C@@H](Cc1ccc(O)cc1)C(N)=O)[C@@H](C)O)C(C)C)[C@@H](C)O
notes: Derivative of human amylin; also called compound 18
B3: N^α1-[(4S)-4-carboxy-4-(19-carboxynonadecanoylamino)butanoyl]-[Glu14,Arg17,Pro21,Pro27,Pro29]-h-amylin (peptide)
peptide: {C20 diacid-γGlu}-KCNTATCATQRLAEFLRHSSPNFGAIPSPTNVGSNTY-NH2
modifications: disulfide 2-7
SMILES: CC[C@H](C)[C@H](NC(=O)[C@H](C)NC(=O)CNC(=O)[C@H](Cc1ccccc1)NC(=O)[C@H](CC(N)=O)NC(=O)[C@@H]1CCCN1C(=O)[C@H](CO)NC(=O)[C@H](CO)NC(=O)[C@H](Cc1c[nH]cn1)NC(=O)[C@H](CCCNC(=N)N)NC(=O)[C@H](CC(C)C)NC(=O)[C@H](Cc1ccccc1)NC(=O)[C@H](CCC(=O)O)NC(=O)[C@H](C)NC(=O)[C@H](CC(C)C)NC(=O)[C@H](CCCNC(=N)N)NC(=O)[C@H](CCC(N)=O)NC(=O)[C@@H](NC(=O)[C@H](C)NC(=O)[C@@H]1CSSC[C@H](NC(=O)[C@H](CCCCN)NC(=O)CC[C@H](NC(=O)CCCCCCCCCCCCCCCCCCC(=O)O)C(=O)O)C(=O)N[C@@H](CC(N)=O)C(=O)N[C@@H]([C@@H](C)O)C(=O)N[C@@H](C)C(=O)N[C@@H]([C@@H](C)O)C(=O)N1)[C@@H](C)O)C(=O)N1CCC[C@H]1C(=O)N[C@@H](CO)C(=O)N1CCC[C@H]1C(=O)N[C@H](C(=O)N[C@@H](CC(N)=O)C(=O)N[C@H](C(=O)NCC(=O)N[C@@H](CO)C(=O)N[C@@H](CC(N)=O)C(=O)N[C@H](C(=O)N[C@@H](Cc1ccc(O)cc1)C(N)=O)[C@@H](C)O)C(C)C)[C@@H](C)O
notes: Derivative of human amylin; also called compound 37
B4: N^α1-[(4S)-4-carboxy-4-(19-carboxynonadecanoylamino)butanoyl]-[Glu14,Arg17,Pro21,Pro27,His34]-h-amylin (peptide)
peptide: {C20 diacid-γGlu}-KCNTATCATQRLAEFLRHSSPNFGAIPSSTNVGHNTY-NH2
modifications: disulfide 2-7
SMILES: CC[C@H](C)[C@H](NC(=O)[C@H](C)NC(=O)CNC(=O)[C@H](Cc1ccccc1)NC(=O)[C@H](CC(N)=O)NC(=O)[C@@H]1CCCN1C(=O)[C@H](CO)NC(=O)[C@H](CO)NC(=O)[C@H](Cc1c[nH]cn1)NC(=O)[C@H](CCCNC(=N)N)NC(=O)[C@H](CC(C)C)NC(=O)[C@H](Cc1ccccc1)NC(=O)[C@H](CCC(=O)O)NC(=O)[C@H](C)NC(=O)[C@H](CC(C)C)NC(=O)[C@H](CCCNC(=N)N)NC(=O)[C@H](CCC(N)=O)NC(=O)[C@@H](NC(=O)[C@H](C)NC(=O)[C@@H]1CSSC[C@H](NC(=O)[C@H](CCCCN)NC(=O)CC[C@H](NC(=O)CCCCCCCCCCCCCCCCCCC(=O)O)C(=O)O)C(=O)N[C@@H](CC(N)=O)C(=O)N[C@@H]([C@@H](C)O)C(=O)N[C@@H](C)C(=O)N[C@@H]([C@@H](C)O)C(=O)N1)[C@@H](C)O)C(=O)N1CCC[C@H]1C(=O)N[C@@H](CO)C(=O)N[C@@H](CO)C(=O)N[C@H](C(=O)N[C@@H](CC(N)=O)C(=O)N[C@H](C(=O)NCC(=O)N[C@@H](Cc1c[nH]cn1)C(=O)N[C@@H](CC(N)=O)C(=O)N[C@H](C(=O)N[C@@H](Cc1ccc(O)cc1)C(N)=O)[C@@H](C)O)C(C)C)[C@@H](C)O
notes: Derivative of human amylin; also called compound 17

Numbered stars: 1 amine (or outer) side, 2 acyl side, 3 side chain; on linkers, the order of the positions; unused ones are H or OH. Bridge positions count the residues as written; N and C are the ends. * marks the point of attachment. C20 diacid = O=C(O)CCCCCCCCCCCCCCCCCCC(=O)*; γGlu = O=C(O)[C@H](CCC(=O)[*:2])N[*:1]

In the first assay the target is T1, rat calcitonin receptor. Kind of assay: ratio IC50 rat calcitonin receptor / IC50 rat amylin receptor (Assays VIII and VI).
Take B1: the “Ratio rCT/rAmylin binding” value was found to be 45.6.
On the same count and under the same terms, under B2 stands 27.3; under B3, 14.3; under B4, 35.9.

The next assay concerns the target T2, human calcitonin receptor. Kind of assay: ratio IC50 human calcitonin receptor / IC50 human amylin receptor (Assays VII and V). An outline of the steps: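 IC₅₀ values were derived by one-site competition analysis of SPA counts. Cell membranes (35 ng/μL) with SPA beads were incubated with test compounds for 120 min at 25° C in Hepes buffer, pH 7.4, containing CaCl2, MgCl₂, OA and Tween20.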
On to B1, for which the “Ratio hCT/hAmylin binding” value was 19.1.
On the same count and under the same terms, under B2 stands 9.2; under B3, 2.3; under B4, 12.5.

In a further assay the target is T1, rat calcitonin receptor. Kind of assay: SPA competition with 125I-calcitonin, membranes of BHK cells with rat calcitonin receptor (Assay VIII).
For orientation: IC50 means the concentration that inhibits the measured activity by half. On to B1, for which the IC50 was 55.2 nM.
Consider B2, for which the IC50 worked out at 13 nM.
Still for that read-out and setting: then B3, with 7.35 nM.
On the same count and under the same terms, then B4, with 97.2 nM.

A further assay addresses T3, rat amylin receptor (rat calcitonin …). Kind of assay: SPA competition with 125I-rat amylin, membranes of BHK cells with rat calcitonin receptor + rat RAMP3 (Assay VI).
Take B1: the IC50 stood at 1.21 nM.
Same read-out and setting: then B2, with 0.476 nM.
The same measure, in the same setting: under B3 stands 0.514 nM.
Turning to B4, the IC50 came to 2.71 nM.
